Data as given in patent US20250352661A1 (MYTHIC THERAPEUTICS, published 2025).
Where a chain is given by its changes, count along the chain named. In names and notes the source's numbering stands.

T1: Human LRRC15 Protein, His Tag (Acro Biosystems) (human, UniProt Q8TF66 22-538, limits assumed)
T1 construct: not shown: His tag
T1 sequence (looked up): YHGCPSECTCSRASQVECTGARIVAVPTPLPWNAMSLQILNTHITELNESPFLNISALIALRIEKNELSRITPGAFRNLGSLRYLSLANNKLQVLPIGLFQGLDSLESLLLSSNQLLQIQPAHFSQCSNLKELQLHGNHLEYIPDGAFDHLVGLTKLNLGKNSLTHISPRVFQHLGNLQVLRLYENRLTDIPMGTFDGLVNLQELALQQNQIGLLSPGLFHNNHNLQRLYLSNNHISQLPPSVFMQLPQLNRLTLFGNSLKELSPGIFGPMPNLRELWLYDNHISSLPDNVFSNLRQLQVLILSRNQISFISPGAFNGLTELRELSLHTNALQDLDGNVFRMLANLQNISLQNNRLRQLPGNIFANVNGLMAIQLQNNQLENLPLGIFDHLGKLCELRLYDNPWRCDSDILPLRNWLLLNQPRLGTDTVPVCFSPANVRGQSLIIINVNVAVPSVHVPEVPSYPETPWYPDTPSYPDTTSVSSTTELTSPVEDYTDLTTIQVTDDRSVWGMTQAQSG

T2: Human LRRC15 Protein, His Tag, Acro Biosystems (human, UniProt Q8TF66 22-538, limits assumed)
T2 construct: not shown: His tag
T2 sequence (looked up): T1 sequence (looked up)

B1: MYT9490 (antibody, V domains shown)
VH: EVQLVESGGGLVQPGGSLRLSCTASGFSFSSSHWICWVRQAPGKGLEWVGCIYAGSIGSTYYASWDKGRFTISRDTSKNTVYLQMNSLRAEDTAVYYCARAPNDIYNYYFNLWGQGTLVTVSS
VL: EIVMTQSPSTLSASVGDRVIITCQASENIYNYLAWYQQKPGKAPKLLIYYASTLASGVPSRFSGSGSGAEFTLTISSLQPDDFATYYCQSGYVSKSSTFGQGTKLTVL
notes: also called hu29F1 VH A66D
B2: MYT9494 (antibody, V domains shown)
VH: B1 VH with D66A, R100D
VL: B1 VL
notes: also called hu29F1 VH R100D
B3: MYT9486 (antibody, V domains shown)
VH: B1 VH with Y62D, D66A
VL: B1 VL
notes: also called hu29F1 VH Y62D
B4: MYT9485 (antibody, V domains shown)
VH: B1 VH with Y61D, D66A
VL: B1 VL
notes: also called hu29F1 VH Y61D
B5: MYT9484 (antibody, V domains shown)
VH: B1 VH with T60D, D66A
VL: B1 VL
notes: also called hu29F1 VH T60D
B6: MYT9489 (antibody, V domains shown)
VH: B1 VH with W65D, D66A
VL: B1 VL
notes: also called hu29F1 VH W65D
B7: MYT9491 (antibody, V domains shown)
VH: B1 VH with D66A, K67D
VL: B1 VL
notes: also called hu29F1 VH K67D
B8: MYT9488 (antibody, V domains shown)
VH: B1 VH with S64D, D66A
VL: B1 VL
notes: also called hu29F1 VH S64D
B9: MYT9493 (antibody, V domains shown)
VH: B1 VH with D66A, A99D
VL: B1 VL
notes: Humanized 29F1 VH aspartate variant; also called hu29F1 VH A99D
B10: MYT9487 (antibody, V domains shown)
VH: B1 VH with A63D, D66A
VL: B1 VL
notes: also called hu29F1 VH A63D
B11: MYT9508 (antibody, V domains shown)
VH: B1 VH with D66A
VL: B1 VL with A25D
notes: also called hu29F1 VL A25D
B12: MYT9509 (antibody, V domains shown)
VH: B1 VH with D66A
VL: B1 VL with S26D
notes: Humanized 29F1 with VL S26D; captured by anti-human Fc sensor
B13: MYT9752 (antibody, V domains shown)
VH: B1 VH with D66A
VL: B1 VL with S96E
notes: also called hu29F1 VL S96E
B14: MYT9744 (antibody, V domains shown)
VH: B1 VH with D66A
VL: B1 VL with S56E
notes: Humanized 29F1 with VL S56E; captured by anti-human Fc sensor
B15: MYT9745 (antibody, V domains shown)
VH: B1 VH with D66A
VL: B1 VL with Q89E
notes: also called hu29F1 VL Q89E
B16: MYT9741 (antibody, V domains shown)
VH: B1 VH with D66A
VL: B1 VL with T53E
notes: Humanized 29F1 with VL T53E; captured by anti-human Fc sensor
B17: MYT9734 (antibody, V domains shown)
VH: B1 VH with D66A
VL: B1 VL with N31E
notes: also called hu29F1 VL N31E
B18: MYT9732 (antibody, V domains shown)
VH: B1 VH with D66A
VL: B1 VL with I29E
notes: also called hu29F1 VL I29E
B19: MYT9754 (antibody, V domains shown)
VH: B1 VH with D66A
VL: B1 VL with T98E
notes: also called hu29F1 VL T98E
B20: MYT9727 (antibody, V domains shown)
VH: B1 VH with D66A
VL: B1 VL with Q24E
notes: Humanized 29F1 with VL Q24E; captured by anti-human Fc sensor
B21: MYT9728 (antibody, V domains shown)
VH: B1 VH with D66A
VL: B1 VL with A25E
notes: also called hu29F1 VL A25E
B22: MYT9729 (antibody, V domains shown)
VH: B1 VH with D66A
VL: B1 VL with S26E
notes: also called hu29F1 VL S26E
B23: MYT9736 (antibody, V domains shown)
VH: B1 VH with D66A
VL: B1 VL with L33E
notes: also called hu29F1 VL L33E
B24: MYT9740 (antibody, V domains shown)
VH: B1 VH with D66A
VL: B1 VL with S52E
notes: Humanized 29F1 with VL S52E; captured by anti-human Fc sensor
B25: MYT9739 (antibody, V domains shown)
VH: B1 VH with D66A
VL: B1 VL with A51E
notes: Humanized 29F1 with VL A51E; captured by anti-human Fc sensor
B26: MYT9753 (antibody, V domains shown)
VH: B1 VH with D66A
VL: B1 VL with S97E
notes: also called hu29F1 VL S97E
B27: MYT9730 (antibody, V domains shown)
VH: B1 VH with D66A
VL: B1 VL with E27A
notes: Humanized 29F1 with VL E27A; captured by anti-human Fc sensor
B28: MYT9738 (antibody, V domains shown)
VH: B1 VH with D66A
VL: B1 VL with Y50E
notes: Humanized 29F1 with VL Y50E; captured by anti-human Fc sensor

What follows are binders tested against T1, Human LRRC15 Protein, His Tag (Acro …) (assay: BLI; dissociation pH 7.4 black, pH 5.4 grey [1/2); D00019 FIG. 4B (1/2]).
Description: Desirable mutations were transferred to a humanized framework (humanized, MYT 8387-8411). After allowing for four days of protein expression, cell culture supernatants were collected, quantified by SDS-PAGE analysis, and the pH dependence of the variant was evaluated using biolayer interferometry (BLI) on an Octet RED 96e instrument. Briefly, cell culture supernatants were diluted based on qualitative expression level of the variant determined by visual examination of SDS-PAGE gels, 5 μL of cell culture supernatant was diluted into 195 μL of 1×PBST, pH 7.4 for high expressors, 25 μL of cell culture supernatant was diluted into 175 μL of 1×PBST, pH 7.4 for medium expressors and 100 μL of cell culture supernatant was diluted into 100 μL of 1×PBST, pH 7.4 for low expressors for loading onto the sensor tips. The resulting diluted supernatants were then captured on an anti-human Fc sensor (Forte Bio). A baseline was established using 1×PBST (50 mM Potassium Phosphate Buffer+150 mM NaCl+0.05% Tween 20) pH 7.4, and the […] was associated with 50 nM of LRRC15 (Human LRRC15 Protein, His Tag, Acro Biosystems) in 1×PBST pH 7.4 for 120 sec to generate an association curve. In the dissociation phase, the antibody-antigen complex on the sensor was exposed to 1×PBST pH 7.4 or pH 5.4, for 300 sec. Association and dissociation phase curves were examined for the starting ABPC antibody (with no substitutions) and each corresponding antibody variant at pH 5.4 and pH 7.4 to inform on two criteria: a) enhanced dissociation (i.e., higher koff values) at pH 5.4 due to histidine substitution compared to the starting ABPC, (with no substitutions), and b) reduced dissociation at pH 7.4 (i.e., lower koff values) compared to pH 5.4 in the antibody variant itself and with the starting ABPC (with no substitutions).
The methods of Examples 9-10 were applied to RabMAb clone 29F1 (rabbit VH SEQ ID NO: 572 and VL SEQ ID NO: 578; and humanized VH SEQ ID NO: 576 and VL SEQ ID NO: 582).

Row | binding result | Binder
1 | binds | B1
2 | binds | B2
3 | binds | B3
4 | binds | B4
5 | binds | B5
6 | binds | B6
7 | binds | B7
8 | binds | B8
9 | binds | B9
10 | binds | B10

The binders below were run against T2, Human LRRC15 Protein, His Tag, Acro … (assay: BLI; dissociation pH 7.4 black, pH 5.4 grey [D00022 FIG. 5B]).
Description: The resulting diluted supernatants were then captured on an anti-human Fc sensor (Forte Bio). A baseline was established using 1×PBST (50 mM Potassium Phosphate Buffer+150 mM NaCl+0.05% Tween 20) pH 7.4, and the […] was associated with 50 nM of LRRC15 (Human LRRC15 Protein, His Tag, Acro Biosystems) in 1×PBST pH 7.4 for 120 sec to generate an association curve. In the dissociation phase, the antibody-antigen complex on the sensor was exposed to 1×PBST pH 7.4 or pH 5.4, for 300 sec. Association and dissociation phase curves were examined for the starting ABPC antibody (with no substitutions) and each corresponding antibody variant at pH 5.4 and pH 7.4 to inform on two criteria: a) enhanced dissociation (i.e., higher koff values) at pH 5.4 due to histidine substitution compared to the starting ABPC, (with no substitutions), and b) reduced dissociation at pH 7.4 (i.e., lower koff values) compared to pH 5.4 in the antibody variant itself and with the starting ABPC (with no substitutions).
Briefly, CDRs in the 15G7 light chain were identified using the methods described in Example 9, and for each CDR, residues falling under either or both Kabat and IMGT CDR definitions were called as CDR residues. To generate pH-dependent sequence variants, individual amino acid residues within the light chain CDRs were systematically substituted with a histidine, one at a time (rabbit, MYT6122-6151). Desirable mutations were transferred to a humanized framework MYT8413-8487). After allowing for four days of protein expression, cell culture supernatants were collected, quantified by SDS-PAGE analysis, and the pH dependence of the variant was evaluated using biolayer interferometry (BLI) on an Octet RED 96e instrument (as described in Example 9). […]

Row | binding result | Binder
11 | binds | B11
12 | binds | B12

These binders were tested against T2, Human LRRC15 Protein, His Tag, Acro … (assay: BLI; dissociation pH 7.4 black, pH 5.4 grey [D00028 FIG. 7B]).

Row | binding result | Binder
13 | binds | B13
14 | binds | B14
15 | binds | B15
16 | binds | B16
17 | binds | B17
18 | binds | B18
19 | binds | B19
20 | binds | B20
21 | binds | B21
22 | binds | B22
23 | binds | B23
24 | binds | B24
25 | binds | B25
26 | binds | B26
27 | binds | B27
28 | binds | B28
